Results reported in the supplement of paper PMC9112550, “Optimization of the antimicrobial peptide Bac7 by deep mutational scanning” (BMC Biology, 2022).

Test system: Escherichia coli TOP10
Experiment: shrunken log2 fold change of peptide-encoding DNA abundance (4.5 h post-induction vs induction); higher = less antimicrobial activity (less host growth inhibition)
Settings: time post-induction: 4.5 h; library: site-saturation at positions 5, 18, 19, 20
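Also: peptides expressed intracellularly from a pBAD plasmid library in pooled LB shake-flask culture, induced with 0.3% L-arabinose, DNA abundance read by NGS, three biological replicates, DESeq2 with apeglm shrinkage.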

| Sequence | shrunken log2 fold change |
| --- | --- |
| RRIRYRPPRLPRPRPRPSKLPRP | -0.917 |
| RRIRYRPPRLPRPRPRPSKVPRP | -1.04 |
| RRIRYRPPRLPRPRPRPSLRPRP | -0.9 |
| RRIRYRPPRLPRPRPRPSMCPRP | -0.24 |
| RRIRYRPPRLPRPRPRPSMWPRP | -1.68 |
| RRIRYRPPRLPRPRPRPSMYPRP | -0.418 |
| RRIRYRPPRLPRPRPRPSNEPRP | -0.474 |
| RRIRYRPPRLPRPRPRPSQDPRP | -0.561 |
| RRIRYRPPRLPRPRPRPSQTPRP | -0.0989 |
| RRIRYRPPRLPRPRPRPSSFPRP | -0.0941 |
| RRIRYRPPRLPRPRPRPSTMPRP | -0.434 |
| RRIRYRPPRLPRPRPRPSVFPRP | -0.219 |
| RRIRYRPPRLPRPRPRPSWCPRP | -0.0502 |
| RRIRYRPPRLPRPRPRPSWFPRP | -0.942 |
| RRIRYRPPRLPRPRPRPTAKPRP | 0.0338 |
| RRIRYRPPRLPRPRPRPTAPPRP | -0.25 |
| RRIRYRPPRLPRPRPRPTCSPRP | -0.0789 |
| RRIRYRPPRLPRPRPRPTCWPRP | 0.0987 |
| RRIRYRPPRLPRPRPRPTDFPRP | -0.325 |
| RRIRYRPPRLPRPRPRPTEFPRP | -0.465 |
| RRIRYRPPRLPRPRPRPTFDPRP | -0.76 |
| RRIRYRPPRLPRPRPRPTFHPRP | -0.649 |
| RRIRYRPPRLPRPRPRPTFYPRP | -0.803 |
| RRIRYRPPRLPRPRPRPTGTPRP | -0.172 |
| RRIRYRPPRLPRPRPRPTHLPRP | -0.0864 |
| RRIRYRPPRLPRPRPRPTMKPRP | -0.285 |

| Sequence | shrunken log2 fold change |
| --- | --- |
| RRIRYRPPRLPRPRPRPTPPPRP | 0.421 |
| RRIRYRPPRLPRPRPRPTPWPRP | -0.145 |
| RRIRYRPPRLPRPRPRPTQTPRP | 0.0249 |
| RRIRYRPPRLPRPRPRPTSPPRP | -0.0595 |
| RRIRYRPPRLPRPRPRPTSYPRP | -0.0849 |
| RRIRYRPPRLPRPRPRPTTQPRP | -0.597 |
| RRIRYRPPRLPRPRPRPTVAPRP | 0.0691 |
| RRIRYRPPRLPRPRPRPTVEPRP | 0.0629 |
| RRIRYRPPRLPRPRPRPTVGPRP | 0.0163 |
| RRIRYRPPRLPRPRPRPTWIPRP | -1.08 |
| RRIRYRPPRLPRPRPRPTYFPRP | -0.485 |
| RRIRYRPPRLPRPRPRPTYLPRP | -0.824 |
| RRIRYRPPRLPRPRPRPVDFPRP | -0.226 |
| RRIRYRPPRLPRPRPRPVDKPRP | -0.00804 |
| RRIRYRPPRLPRPRPRPVDPPRP | -0.0356 |
| RRIRYRPPRLPRPRPRPVDQPRP | -0.611 |
| RRIRYRPPRLPRPRPRPVDYPRP | -0.213 |
| RRIRYRPPRLPRPRPRPVFDPRP | -1.18 |
| RRIRYRPPRLPRPRPRPVFGPRP | -0.415 |
| RRIRYRPPRLPRPRPRPVGHPRP | -0.076 |
| RRIRYRPPRLPRPRPRPVHKPRP | -0.564 |
| RRIRYRPPRLPRPRPRPVHMPRP | -0.0179 |
| RRIRYRPPRLPRPRPRPVHQPRP | -0.0229 |
| RRIRYRPPRLPRPRPRPVIAPRP | -0.354 |
| RRIRYRPPRLPRPRPRPVIWPRP | -0.262 |
| RRIRYRPPRLPRPRPRPVMYPRP | -0.134 |

| Sequence | shrunken log2 fold change |
| --- | --- |
| RRIRYRPPRLPRPRPRPVNCPRP | 0.0039 |
| RRIRYRPPRLPRPRPRPVNKPRP | -0.0557 |
| RRIRYRPPRLPRPRPRPVNPPRP | -0.0594 |
| RRIRYRPPRLPRPRPRPVPEPRP | -0.294 |
| RRIRYRPPRLPRPRPRPVQHPRP | -0.247 |
| RRIRYRPPRLPRPRPRPVRFPRP | -0.0685 |
| RRIRYRPPRLPRPRPRPVRGPRP | 0.393 |
| RRIRYRPPRLPRPRPRPVRIPRP | -0.053 |
| RRIRYRPPRLPRPRPRPVTEPRP | -0.134 |
| RRIRYRPPRLPRPRPRPVVIPRP | -0.868 |
| RRIRYRPPRLPRPRPRPVWLPRP | -0.0438 |
| RRIRYRPPRLPRPRPRPVWPPRP | 9.23e-05 |
| RRIRYRPPRLPRPRPRPVWQPRP | -0.288 |
| RRIRYRPPRLPRPRPRPWCQPRP | -0.243 |
| RRIRYRPPRLPRPRPRPWFIPRP | -0.054 |
| RRIRYRPPRLPRPRPRPWGHPRP | -0.275 |
| RRIRYRPPRLPRPRPRPWINPRP | -0.803 |
| RRIRYRPPRLPRPRPRPWKEPRP | -0.0075 |
| RRIRYRPPRLPRPRPRPWLGPRP | -0.0293 |
| RRIRYRPPRLPRPRPRPWMPPRP | -0.417 |
| RRIRYRPPRLPRPRPRPWMVPRP | -0.523 |
| RRIRYRPPRLPRPRPRPWNAPRP | -0.397 |
| RRIRYRPPRLPRPRPRPWSHPRP | -0.05 |
| RRIRYRPPRLPRPRPRPWTPPRP | -0.0576 |
| RRIRYRPPRLPRPRPRPWVMPRP | -0.195 |
| RRIRYRPPRLPRPRPRPWVYPRP | -0.234 |

| Sequence | shrunken log2 fold change |
| --- | --- |
| RRIRYRPPRLPRPRPRPWWDPRP | -0.266 |
| RRIRYRPPRLPRPRPRPYAFPRP | -0.0129 |
| RRIRYRPPRLPRPRPRPYARPRP | -0.0987 |
| RRIRYRPPRLPRPRPRPYCIPRP | -1.32 |
| RRIRYRPPRLPRPRPRPYDHPRP | -0.474 |
| RRIRYRPPRLPRPRPRPYEVPRP | -0.343 |
| RRIRYRPPRLPRPRPRPYFQPRP | -1.6 |
| RRIRYRPPRLPRPRPRPYFRPRP | -0.836 |
| RRIRYRPPRLPRPRPRPYFTPRP | -0.981 |
| RRIRYRPPRLPRPRPRPYFVPRP | -0.858 |
| RRIRYRPPRLPRPRPRPYKYPRP | -0.238 |
| RRIRYRPPRLPRPRPRPYLAPRP | -0.682 |
| RRIRYRPPRLPRPRPRPYLPPRP | -0.174 |
| RRIRYRPPRLPRPRPRPYLWPRP | -0.777 |
| RRIRYRPPRLPRPRPRPYQNPRP | -0.467 |
| RRIRYRPPRLPRPRPRPYQPPRP | 0.0857 |
| RRIRYRPPRLPRPRPRPYQYPRP | -1.05 |
| RRIRYRPPRLPRPRPRPYRTPRP | -0.588 |
| RRIRYRPPRLPRPRPRPYSGPRP | -1 |
| RRIRYRPPRLPRPRPRPYTHPRP | -0.508 |
| RRIRYRPPRLPRPRPRPYTWPRP | -0.571 |
| RRIRYRPPRLPRPRPRPYVPPRP | -0.77 |
| RRIRYRPPRLPRPRPRPYYGPRP | -0.0846 |
| RRIRYRPPRLPRPRPRPYYPPRP | -0.293 |
| RRIRYRPPRLPRPRPRPYYRPRP | -0.161 |
| RRIRYRPPRLPRPRPRPYYSPRP | 0.0106 |
